T1: human neuromedin U receptor 1 (human, UniProt Q9HB89 24-426)
T1 sequence (looked up): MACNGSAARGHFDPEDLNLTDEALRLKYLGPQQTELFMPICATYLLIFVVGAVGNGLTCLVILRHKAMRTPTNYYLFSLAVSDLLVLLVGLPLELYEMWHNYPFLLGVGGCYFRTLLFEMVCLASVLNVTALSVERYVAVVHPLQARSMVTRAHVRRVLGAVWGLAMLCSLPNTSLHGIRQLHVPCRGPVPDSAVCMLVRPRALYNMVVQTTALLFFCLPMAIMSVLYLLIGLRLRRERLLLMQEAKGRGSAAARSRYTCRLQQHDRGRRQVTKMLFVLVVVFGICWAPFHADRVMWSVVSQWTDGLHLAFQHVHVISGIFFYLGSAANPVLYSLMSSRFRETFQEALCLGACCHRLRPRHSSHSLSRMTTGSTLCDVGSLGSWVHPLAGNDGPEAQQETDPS

B1: C18DA-gGlu3-Sar15-PipAc-Tyr-Phe-NMeLeu-Nle-Dbu-Pro-Arg-Gly-NH2 (peptide)
peptide: EEEXXXXXXXXXXXXXXXXYFLXXPRG
HELM: PEPTIDE1{[O=C(O)CCCCCCCCCCCCCCCCC(=O)[*:2]].[gGlu].[gGlu].[gGlu].[Sar].[Sar].[Sar].[Sar].[Sar].[Sar].[Sar].[Sar].[Sar].[Sar].[Sar].[Sar].[Sar].[Sar].[Sar].[O=C(CN1CCN([*:1])CC1)[*:2]].Y.F.[meL].[Nle].[Dab].P.R.G.[am]}$$$$V2.0
SMILES: CCCC[C@H](NC(=O)[C@H](CC(C)C)N(C)C(=O)[C@H](Cc1ccccc1)NC(=O)[C@H](Cc1ccc(O)cc1)NC(=O)CN1CCN(C(=O)CN(C)C(=O)CN(C)C(=O)CN(C)C(=O)CN(C)C(=O)CN(C)C(=O)CN(C)C(=O)CN(C)C(=O)CN(C)C(=O)CN(C)C(=O)CN(C)C(=O)CN(C)C(=O)CN(C)C(=O)CN(C)C(=O)CN(C)C(=O)CN(C)C(=O)CC[C@H](NC(=O)CC[C@H](NC(=O)CC[C@H](NC(=O)CCCCCCCCCCCCCCCCC(=O)O)C(=O)O)C(=O)O)C(=O)O)CC1)C(=O)N[C@@H](CCN)C(=O)N1CCC[C@H]1C(=O)N[C@@H](CCCNC(=N)N)C(=O)NCC(N)=O
B2: C18DA-gGlu3-Sar12-PipAc-Tyr-Phe-NMeLeu-Nle-Arg-Pro-Arg-Gly-NH2 (peptide)
peptide: EEEXXXXXXXXXXXXXYFLXRPRG
HELM: PEPTIDE1{[O=C(O)CCCCCCCCCCCCCCCCC(=O)[*:2]].[gGlu].[gGlu].[gGlu].[Sar].[Sar].[Sar].[Sar].[Sar].[Sar].[Sar].[Sar].[Sar].[Sar].[Sar].[Sar].[O=C(CN1CCN([*:1])CC1)[*:2]].Y.F.[meL].[Nle].R.P.R.G.[am]}$$$$V2.0
SMILES: CCCC[C@H](NC(=O)[C@H](CC(C)C)N(C)C(=O)[C@H](Cc1ccccc1)NC(=O)[C@H](Cc1ccc(O)cc1)NC(=O)CN1CCN(C(=O)CN(C)C(=O)CN(C)C(=O)CN(C)C(=O)CN(C)C(=O)CN(C)C(=O)CN(C)C(=O)CN(C)C(=O)CN(C)C(=O)CN(C)C(=O)CN(C)C(=O)CN(C)C(=O)CN(C)C(=O)CC[C@H](NC(=O)CC[C@H](NC(=O)CC[C@H](NC(=O)CCCCCCCCCCCCCCCCC(=O)O)C(=O)O)C(=O)O)C(=O)O)CC1)C(=O)N[C@@H](CCCNC(=N)N)C(=O)N1CCC[C@H]1C(=O)N[C@@H](CCCNC(=N)N)C(=O)NCC(N)=O
B3: C20DA-gGlu3-Sar12-PipAc-Tyr-Phe-NMeLeu-Nle-Arg-Pro-Arg-Gly-NH2 (peptide)
peptide: EEEXXXXXXXXXXXXXYFLXRPRG
HELM: PEPTIDE1{[O=C(O)CCCCCCCCCCCCCCCCCCC(=O)[*:2]].[gGlu].[gGlu].[gGlu].[Sar].[Sar].[Sar].[Sar].[Sar].[Sar].[Sar].[Sar].[Sar].[Sar].[Sar].[Sar].[O=C(CN1CCN([*:1])CC1)[*:2]].Y.F.[meL].[Nle].R.P.R.G.[am]}$$$$V2.0
SMILES: CCCC[C@H](NC(=O)[C@H](CC(C)C)N(C)C(=O)[C@H](Cc1ccccc1)NC(=O)[C@H](Cc1ccc(O)cc1)NC(=O)CN1CCN(C(=O)CN(C)C(=O)CN(C)C(=O)CN(C)C(=O)CN(C)C(=O)CN(C)C(=O)CN(C)C(=O)CN(C)C(=O)CN(C)C(=O)CN(C)C(=O)CN(C)C(=O)CN(C)C(=O)CN(C)C(=O)CC[C@H](NC(=O)CC[C@H](NC(=O)CC[C@H](NC(=O)CCCCCCCCCCCCCCCCCCC(=O)O)C(=O)O)C(=O)O)C(=O)O)CC1)C(=O)N[C@@H](CCCNC(=N)N)C(=O)N1CCC[C@H]1C(=O)N[C@@H](CCCNC(=N)N)C(=O)NCC(N)=O
B4: C18DA-gGlu3-Sar15-PipAc-Tyr-Phe-NMeLeu-Nle-Dbu-NMeAla-Arg-Gly-NH2 (peptide)
peptide: EEEXXXXXXXXXXXXXXXXYFLXXARG
HELM: PEPTIDE1{[O=C(O)CCCCCCCCCCCCCCCCC(=O)[*:2]].[gGlu].[gGlu].[gGlu].[Sar].[Sar].[Sar].[Sar].[Sar].[Sar].[Sar].[Sar].[Sar].[Sar].[Sar].[Sar].[Sar].[Sar].[Sar].[O=C(CN1CCN([*:1])CC1)[*:2]].Y.F.[meL].[Nle].[Dab].[meA].R.G.[am]}$$$$V2.0
SMILES: CCCC[C@H](NC(=O)[C@H](CC(C)C)N(C)C(=O)[C@H](Cc1ccccc1)NC(=O)[C@H](Cc1ccc(O)cc1)NC(=O)CN1CCN(C(=O)CN(C)C(=O)CN(C)C(=O)CN(C)C(=O)CN(C)C(=O)CN(C)C(=O)CN(C)C(=O)CN(C)C(=O)CN(C)C(=O)CN(C)C(=O)CN(C)C(=O)CN(C)C(=O)CN(C)C(=O)CN(C)C(=O)CN(C)C(=O)CN(C)C(=O)CC[C@H](NC(=O)CC[C@H](NC(=O)CC[C@H](NC(=O)CCCCCCCCCCCCCCCCC(=O)O)C(=O)O)C(=O)O)C(=O)O)CC1)C(=O)N[C@@H](CCN)C(=O)N(C)[C@@H](C)C(=O)N[C@@H](CCCNC(=N)N)C(=O)NCC(N)=O
B5: C20DA-gGlu3-Sar15-PipAc-Tyr-Phe-NMeLeu-Nle-Orn-Pro-Arg-Gly-NH2 (peptide)
peptide: EEEXXXXXXXXXXXXXXXXYFLXXPRG
HELM: PEPTIDE1{[O=C(O)CCCCCCCCCCCCCCCCCCC(=O)[*:2]].[gGlu].[gGlu].[gGlu].[Sar].[Sar].[Sar].[Sar].[Sar].[Sar].[Sar].[Sar].[Sar].[Sar].[Sar].[Sar].[Sar].[Sar].[Sar].[O=C(CN1CCN([*:1])CC1)[*:2]].Y.F.[meL].[Nle].[Orn].P.R.G.[am]}$$$$V2.0
SMILES: CCCC[C@H](NC(=O)[C@H](CC(C)C)N(C)C(=O)[C@H](Cc1ccccc1)NC(=O)[C@H](Cc1ccc(O)cc1)NC(=O)CN1CCN(C(=O)CN(C)C(=O)CN(C)C(=O)CN(C)C(=O)CN(C)C(=O)CN(C)C(=O)CN(C)C(=O)CN(C)C(=O)CN(C)C(=O)CN(C)C(=O)CN(C)C(=O)CN(C)C(=O)CN(C)C(=O)CN(C)C(=O)CN(C)C(=O)CN(C)C(=O)CC[C@H](NC(=O)CC[C@H](NC(=O)CC[C@H](NC(=O)CCCCCCCCCCCCCCCCCCC(=O)O)C(=O)O)C(=O)O)C(=O)O)CC1)C(=O)N[C@@H](CCCN)C(=O)N1CCC[C@H]1C(=O)N[C@@H](CCCNC(=N)N)C(=O)NCC(N)=O
B6: C20DA-gGlu4-Sar12-AEPipAc-Tyr-Phe-NMeLeu-Nle-Orn-NMeAla-Arg-Gly-NH2 (peptide)
peptide: EEEEXXXXXXXXXXXXXYFLXXARG
HELM: PEPTIDE1{[O=C(O)CCCCCCCCCCCCCCCCCCC(=O)[*:2]].[gGlu].[gGlu].[gGlu].[gGlu].[Sar].[Sar].[Sar].[Sar].[Sar].[Sar].[Sar].[Sar].[Sar].[Sar].[Sar].[Sar].[O=C(CN1CCN(CCN[*:1])CC1)[*:2]].Y.F.[meL].[Nle].[Orn].[meA].R.G.[am]}$$$$V2.0
SMILES: CCCC[C@H](NC(=O)[C@H](CC(C)C)N(C)C(=O)[C@H](Cc1ccccc1)NC(=O)[C@H](Cc1ccc(O)cc1)NC(=O)CN1CCN(CCNC(=O)CN(C)C(=O)CN(C)C(=O)CN(C)C(=O)CN(C)C(=O)CN(C)C(=O)CN(C)C(=O)CN(C)C(=O)CN(C)C(=O)CN(C)C(=O)CN(C)C(=O)CN(C)C(=O)CN(C)C(=O)CC[C@H](NC(=O)CC[C@H](NC(=O)CC[C@H](NC(=O)CC[C@H](NC(=O)CCCCCCCCCCCCCCCCCCC(=O)O)C(=O)O)C(=O)O)C(=O)O)C(=O)O)CC1)C(=O)N[C@@H](CCCN)C(=O)N(C)[C@@H](C)C(=O)N[C@@H](CCCNC(=N)N)C(=O)NCC(N)=O
B7: C18DA-gGlu4-Sar12-AEPipAc-Tyr-Phe-NMeLeu-Nle-Arg-Pro-Arg-Gly-NH2 (peptide)
peptide: EEEEXXXXXXXXXXXXXYFLXRPRG
HELM: PEPTIDE1{[O=C(O)CCCCCCCCCCCCCCCCC(=O)[*:2]].[gGlu].[gGlu].[gGlu].[gGlu].[Sar].[Sar].[Sar].[Sar].[Sar].[Sar].[Sar].[Sar].[Sar].[Sar].[Sar].[Sar].[O=C(CN1CCN(CCN[*:1])CC1)[*:2]].Y.F.[meL].[Nle].R.P.R.G.[am]}$$$$V2.0
SMILES: CCCC[C@H](NC(=O)[C@H](CC(C)C)N(C)C(=O)[C@H](Cc1ccccc1)NC(=O)[C@H](Cc1ccc(O)cc1)NC(=O)CN1CCN(CCNC(=O)CN(C)C(=O)CN(C)C(=O)CN(C)C(=O)CN(C)C(=O)CN(C)C(=O)CN(C)C(=O)CN(C)C(=O)CN(C)C(=O)CN(C)C(=O)CN(C)C(=O)CN(C)C(=O)CN(C)C(=O)CC[C@H](NC(=O)CC[C@H](NC(=O)CC[C@H](NC(=O)CC[C@H](NC(=O)CCCCCCCCCCCCCCCCC(=O)O)C(=O)O)C(=O)O)C(=O)O)C(=O)O)CC1)C(=O)N[C@@H](CCCNC(=N)N)C(=O)N1CCC[C@H]1C(=O)N[C@@H](CCCNC(=N)N)C(=O)NCC(N)=O
B8: C20DA-gGlu4-Sar15-AEPipAc-Tyr-Phe-NMeLeu-Nle-Orn-NMeAla-Arg-Gly-NH2 (peptide)
peptide: EEEEXXXXXXXXXXXXXXXXYFLXXARG
HELM: PEPTIDE1{[O=C(O)CCCCCCCCCCCCCCCCCCC(=O)[*:2]].[gGlu].[gGlu].[gGlu].[gGlu].[Sar].[Sar].[Sar].[Sar].[Sar].[Sar].[Sar].[Sar].[Sar].[Sar].[Sar].[Sar].[Sar].[Sar].[Sar].[O=C(CN1CCN(CCN[*:1])CC1)[*:2]].Y.F.[meL].[Nle].[Orn].[meA].R.G.[am]}$$$$V2.0
SMILES: CCCC[C@H](NC(=O)[C@H](CC(C)C)N(C)C(=O)[C@H](Cc1ccccc1)NC(=O)[C@H](Cc1ccc(O)cc1)NC(=O)CN1CCN(CCNC(=O)CN(C)C(=O)CN(C)C(=O)CN(C)C(=O)CN(C)C(=O)CN(C)C(=O)CN(C)C(=O)CN(C)C(=O)CN(C)C(=O)CN(C)C(=O)CN(C)C(=O)CN(C)C(=O)CN(C)C(=O)CN(C)C(=O)CN(C)C(=O)CN(C)C(=O)CC[C@H](NC(=O)CC[C@H](NC(=O)CC[C@H](NC(=O)CC[C@H](NC(=O)CCCCCCCCCCCCCCCCCCC(=O)O)C(=O)O)C(=O)O)C(=O)O)C(=O)O)CC1)C(=O)N[C@@H](CCCN)C(=O)N(C)[C@@H](C)C(=O)N[C@@H](CCCNC(=N)N)C(=O)NCC(N)=O

molecular target: T1, human neuromedin U receptor 1; assay: cell-based or functional assay

Compared with B1, B2 is 10-fold lower in “EC50 (hNMUR1) buffer” value: 1100 nM for the first, 110 nM for the second.

First: B3
Second: B4
The “EC50 (hNMUR1) buffer” value of the first is lower: 72 nM for the first, greater than 1000 nM for the second.

First: B5
Second: B6
The “EC50 (hNMUR1) buffer” value of the first is 2.6-fold lower: 470 nM for the first, 1200 nM for the second.

First: B7
Second: B8
The “EC50 (hNMUR1) buffer” value of the first is 6.4-fold lower: 220 nM for the first, 1400 nM for the second.

Reference: patent publication US20240279278A1, “NMU RECEPTOR 2 AGONISTS” (Boehringer Ingelheim International GmbH, priority 2023, published 2024)
